Data published in publication PMC5670330.

Target: GFP-SR-BI (scavenger receptor BI) on CHO cells (UniProt Q8WTV0)
Chain of UniProt Q8WTV0 (Q8WTV0 whole entry): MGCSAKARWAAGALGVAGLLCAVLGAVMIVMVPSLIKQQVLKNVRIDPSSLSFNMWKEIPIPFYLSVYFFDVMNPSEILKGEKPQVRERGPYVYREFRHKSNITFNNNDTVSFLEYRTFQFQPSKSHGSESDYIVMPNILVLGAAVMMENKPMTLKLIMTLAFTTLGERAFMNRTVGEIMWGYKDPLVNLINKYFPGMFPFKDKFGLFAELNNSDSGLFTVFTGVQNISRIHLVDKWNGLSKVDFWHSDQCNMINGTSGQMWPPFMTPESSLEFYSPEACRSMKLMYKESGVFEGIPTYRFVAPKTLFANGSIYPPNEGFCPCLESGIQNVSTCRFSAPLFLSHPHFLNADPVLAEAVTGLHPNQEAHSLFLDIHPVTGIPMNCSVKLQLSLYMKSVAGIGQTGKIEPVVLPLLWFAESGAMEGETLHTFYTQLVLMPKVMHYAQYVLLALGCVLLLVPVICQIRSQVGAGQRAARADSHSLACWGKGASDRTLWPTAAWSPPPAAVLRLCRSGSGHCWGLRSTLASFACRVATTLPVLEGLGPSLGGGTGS

AF568-HDL internalization by HCCMECs after pre-treatment with 10 ug/mL blocking anti-SR-BI scFv (percent decrease): 57%
Substance: Alexa Fluor 568 labeled human high-density lipoprotein (from UniProt P02647 19-267) (complex)
